Laboratory results as given in the supplement of paper PMC10567573.

B1: CDC25B (parent)
chain: FVDILESDLKDDDAVPPGMESLIS

Variants of: B1
Assay: protein stability index of a GFP-peptide fusion (GPS, HEK-293T) (PSI 1-6); higher = more stable
Conditions: c terminus: a fixed tail appended
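Further: lentivirally expressed fusions sorted by FACS into six bins by GFP to DsRed ratio, PSI derived from sequencing read proportions per bin multiplied by bin number.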

Protein stability index, by site and new letter:
D8: P 2.31; M 2.55; R 2.7; G 2.93; I 2.56; Y 2.62; Q 2.67; K 2.48; A 2.58; L 2.9; V 2.7; S 2.38; F 2.32; W 2.54
A14: G 2.53; Q 2.33; V 3.15; W 2.65; N 3.29; K 2.96; L 2.8; S 3.24; T 3.61; Y 2.49; D 3.48; F 2.49; I 2.65; E 3.05; P 3.15; C 2.86; R 2.75
K10: P 3.1; D 2.91; S 2.52; G 3.5; L 2.45; A 2.77; V 3; I 2.72; F 2.63; C 3.11; Y 2.59; H 2.97
I4: S 4.05; T 3.37; A 4.18; Y 2.52; E 4.52; M 2.47; Q 3.75; F 2.8; H 3; W 2.29; D 4.54; L 2.75
L5: G 3.73; T 3.51; P 3.75; A 3.84; C 3.02; I 2.46; W 1.85; N 3.81; R 2.94; H 3.7; D 4.61; E 4.46; M 3.57; K 3.63
I23: H 3.56; A 3.54; W 2.25; V 2.65; C 2.93; G 3.03; F 2.48; R 2.77; N 2.6; Y 2.69; S 3.3; M 3.02
S7: F 1.9; V 2.17; D 3.67; Y 2.77; I 2.3; E 3.79; Q 3.19; H 2.6; P 2.83; T 2.85; A 2.79; C 3.23; M 2.6; N 2.57; W 1.36; G 3.22; R 2.47
F1: Q 5.4; M 4.59; E 5.37; K 5.17; I 4.33; D 5.24; C 4.49; N 5.3; A 5; P 5.46; T 5.31; H 5.4; Y 3.83
V15: C 2.88; F 2.39; D 3.11; W 2.69; S 3.32; E 3.11; I 3; H 3.04; N 3.27; G 3.19; L 2.78; R 2.69; M 3.02; K 2.96
D11: E 3.17; M 2.6; W 1.8; L 2.25; C 2.25; G 2.78; Y 2.71; R 2.25; F 2.52; Q 2.51; K 3.02
L22: W 2.43; T 3.65; D 3.67; Q 3.32; V 3.19; M 3.1; G 3.21; E 3.92; S 3.66; C 3.15; I 2.77; R 2.66; H 3.52; Y 2.47; N 2.71
S21: L 3.43; M 2.96; Q 2.83; V 2.93; T 2.76; W 2.22; G 2.61; N 2.81; K 2.68; F 2.5; C 2.93; R 2.86; I 3.24; Y 2.35; P 3.02
P16: S 2.88; I 2.44; A 2.98; N 3.23; G 3.02; D 3.62; L 2.76; M 2.6; F 2.06; H 3.14; T 2.98; K 3
D12: I 2.21; A 2.84; N 2.67; F 2.19; Y 2.69; G 3.01; H 2.88; S 2.96; T 2.65; C 2.5; V 2.56; L 2.9
E6: D 2.88; R 2.2; H 2.55; P 2.37; Y 2.33; A 2.04; N 3.13; I 1.93; S 2.54; T 2.58; C 2.13; Q 2.89; M 2.38; G 2.31; W 2.32; V 2.19
P17: R 2.19; A 2.95; H 2.61; F 2.21; Q 3.2; S 2.72; G 3.25; K 2.45; D 3.2; T 3.51; E 3.6; N 2.66; C 2.58; M 2.69; L 2.43; I 2.45
D13: I 2.08; E 2.95; T 2.75; M 2.33; Y 2.11; N 2.67; H 2.7; Q 2.71; W 2.62; P 2.83; C 2.56
M19: F 2.83; P 3.54; N 3.4; V 3.08; L 3.08; R 2.55; I 2.85; W 2.67; A 3.22; Q 3.6; G 3.06; S 3.45; K 3.02; H 2.89; E 3.37
G18: P 3.18; C 2.6; K 2.8; M 2.6; V 2.87; E 3.39; F 2.26; W 2.31; R 2.87; T 3.28; L 3.51; Q 2.86; N 3.23; S 3.06; H 3.11
E20: I 2.31; L 2.2; M 2.16; W 1.78; T 2.51; A 2.77; G 2.48; H 2.69; Y 2.12; F 1.79; N 2.76; V 2.66; C 2.43; D 2.6
L9: D 3.21; R 3.08; V 2.93; E 3.39; G 3.05; F 2.85; C 3.05; T 3.23; N 3.67; P 3.62; W 2.97
V2: R 4.31; T 4.43; W 3.32; S 5.04; C 3.65; K 4.67; F 4.08; H 4.68; E 5.29; I 3.8; L 3.73; D 5.14; G 3.81; Y 4.29; N 4.96; M 4.76; Q 3.98
D3: N 2.81; F 1.6; W 1.91; H 2.91; G 2.83; I 2.75; P 2.93; T 2.39; A 2.65; R 2.12; S 2.96; Q 3.04; E 3.46; L 1.93
S24: F 2.01; W 1.72; M 2.52; L 2.18; N 2.85; E 3.27; T 3.02; H 2.94; V 2.41; A 3.1; P 2.57; Y 2.47; C 2.66; I 2.69; D 3.45
